Results as given in US20250090876A1 (published 2025).

Target: antigen target
Assay: BLI

B1: ESS0102 5A (antibody, V domains shown)
VH: EVQLLESGGGLVQPGGSLRLSCAASGFSFSSYEMNWVRQAPGKGPEWISYISSGGGTIYYADSVRGRFTISRDNSNNTLYLQMNSLRPDDTAIYYCARDRGRKWLQLLFDSWGQGTLVTVSS
VL: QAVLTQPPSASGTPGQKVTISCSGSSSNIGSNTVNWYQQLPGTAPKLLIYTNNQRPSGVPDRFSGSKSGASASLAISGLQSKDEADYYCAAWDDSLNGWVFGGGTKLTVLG
Kd: 11.6 nM
